According to paper PMC10151503, “Specific DNA binding of archaeal histones HMfA and HMfB”:

Assays:
HMfB [1] = biological target: T1, HMfB (Methanothermus fervidus, UniProt P19267 1-69); experiment: MST; Hill h 3.30 ± 0.97; MST: 50 mM Tris-HCl pH 8, 75 mM KCl, 20 nM DNA (40 nM diluted 1:1), 5 min at room temperature (0.2% Tween20 where noted); TPM: 50 mM Tris-HCl pH 7, 75 mM KCl; details: protein: recombinant; chain copies: 2; label: 5' Cy5 top strand; blunt
HMfB D14A K30A E34A [2] = biological target: T2, HMfB D14A K30A E34A (Methanothermus fervidus, UniProt P19267 1-69, D14A;K30A;E34A); experiment: MST; 0.2% Tween20; Hill h 4.09 ± 0.62; MST: 50 mM Tris-HCl pH 8, 75 mM KCl, 20 nM DNA (40 nM diluted 1:1), 5 min at room temperature (0.2% Tween20 where noted); TPM: 50 mM Tris-HCl pH 7, 75 mM KCl; details: protein: recombinant; chain copies: 4; label: 5' Cy5 top strand; blunt
T2 sequence (P19267 whole entry D14A/K30A/E34A): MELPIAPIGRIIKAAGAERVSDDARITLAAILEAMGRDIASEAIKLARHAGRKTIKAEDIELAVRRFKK

HMfA [3] = biological target: T3, HMfA (Methanothermus fervidus, UniProt P48781 1-69); experiment: MST; Hill h 1.08 ± 0.19; MST: 50 mM Tris-HCl pH 8, 75 mM KCl, 20 nM DNA (40 nM diluted 1:1), 5 min at room temperature (0.2% Tween20 where noted); TPM: 50 mM Tris-HCl pH 7, 75 mM KCl; details: protein: recombinant; chain copies: 2; label: 5' Cy5 top strand; blunt
T3 sequence (P48781 whole entry): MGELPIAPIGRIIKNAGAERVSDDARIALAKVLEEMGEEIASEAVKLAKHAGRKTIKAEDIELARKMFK

HMfA [4] = biological target: T3, HMfA; experiment: MST; Hill h 1.08 ± 0.21; MST: 50 mM Tris-HCl pH 8, 75 mM KCl, 20 nM DNA (40 nM diluted 1:1), 5 min at room temperature (0.2% Tween20 where noted); TPM: 50 mM Tris-HCl pH 7, 75 mM KCl; details: protein: recombinant; chain copies: 2; label: 5' Cy5 top strand; blunt
HMfB [5] = biological target: T1, HMfB; experiment: MST; first (specific) step; Hill h 1.24 ± 0.91; MST: 50 mM Tris-HCl pH 8, 75 mM KCl, 20 nM DNA (40 nM diluted 1:1), 5 min at room temperature (0.2% Tween20 where noted); TPM: 50 mM Tris-HCl pH 7, 75 mM KCl; details: protein: recombinant; chain copies: 2; label: 5' Cy5 top strand; blunt
HMfB [6] = biological target: T1, HMfB; experiment: MST; second (nonspecific) step; Hill h 1.44 ± 0.47; MST: 50 mM Tris-HCl pH 8, 75 mM KCl, 20 nM DNA (40 nM diluted 1:1), 5 min at room temperature (0.2% Tween20 where noted); TPM: 50 mM Tris-HCl pH 7, 75 mM KCl; details: protein: recombinant; chain copies: 2; label: 5' Cy5 top strand; blunt
HMfB D14A K30A E34A [7] = biological target: T2, HMfB D14A K30A E34A; experiment: MST; 0.2% Tween20; Hill h 3.51 ± 0.77; MST: 50 mM Tris-HCl pH 8, 75 mM KCl, 20 nM DNA (40 nM diluted 1:1), 5 min at room temperature (0.2% Tween20 where noted); TPM: 50 mM Tris-HCl pH 7, 75 mM KCl; details: protein: recombinant; chain copies: 4; label: 5' Cy5 top strand; blunt
HMfA [8] = biological target: T3, HMfA; experiment: MST; Hill h 0.992 ± 0.21; MST: 50 mM Tris-HCl pH 8, 75 mM KCl, 20 nM DNA (40 nM diluted 1:1), 5 min at room temperature (0.2% Tween20 where noted); TPM: 50 mM Tris-HCl pH 7, 75 mM KCl; details: protein: recombinant; chain copies: 2; label: 5' Cy5 top strand; blunt
HMfB [9] = biological target: T1, HMfB; experiment: MST; first (specific) step; Hill h 7.45 ± 3.5; MST: 50 mM Tris-HCl pH 8, 75 mM KCl, 20 nM DNA (40 nM diluted 1:1), 5 min at room temperature (0.2% Tween20 where noted); TPM: 50 mM Tris-HCl pH 7, 75 mM KCl; details: protein: recombinant; chain copies: 2; label: 5' Cy5 top strand; blunt
HMfB [10] = biological target: T1, HMfB; experiment: MST; second (nonspecific) step; Hill h 0.564 ± 0.30; error exceeds value; MST: 50 mM Tris-HCl pH 8, 75 mM KCl, 20 nM DNA (40 nM diluted 1:1), 5 min at room temperature (0.2% Tween20 where noted); TPM: 50 mM Tris-HCl pH 7, 75 mM KCl; details: protein: recombinant; chain copies: 2; label: 5' Cy5 top strand; blunt
HMfB [11] = biological target: T1, HMfB; experiment: MST; second (nonspecific) step; Hill h 1.30 ± 0.38; MST: 50 mM Tris-HCl pH 8, 75 mM KCl, 20 nM DNA (40 nM diluted 1:1), 5 min at room temperature (0.2% Tween20 where noted); TPM: 50 mM Tris-HCl pH 7, 75 mM KCl; details: protein: recombinant; chain copies: 2; label: 5' Cy5 top strand; blunt
HMfA [12] = biological target: T3, HMfA; experiment: MST; Hill h 1.23 ± 0.16; MST: 50 mM Tris-HCl pH 8, 75 mM KCl, 20 nM DNA (40 nM diluted 1:1), 5 min at room temperature (0.2% Tween20 where noted); TPM: 50 mM Tris-HCl pH 7, 75 mM KCl; details: protein: recombinant; chain copies: 2; label: 5' Cy5 top strand; blunt

T1 sequence (P19267 whole entry): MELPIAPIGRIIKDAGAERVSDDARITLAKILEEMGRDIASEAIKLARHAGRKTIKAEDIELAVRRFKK

B1: Nonspecific 78 bp (dsDNA)
DNA 1: CGGCGCAAATTCGTGACCAGTTGCATCAGCTGCGTGAGCTGTTTATCGCAGCATCGTAACAGGATAGTGAAGAAGACT
DNA 2: AGTCTTCTTCACTATCCTGTTACGATGCTGCGATAAACAGCTCACGCAGCTGATGCAACTGGTCACGAATTTGCGCCG
HMfB [1]
  Kd: 0.915 ± 0.089 µM
HMfB D14A K30A E34A [2]
  Kd: 22 ± 0.71 µM
HMfA [3]
  Kd: 16.5 ± 6.7 µM

B2: Clone20 78 bp (dsDNA)
DNA 1: GGATCCCTGTCGGCACAGTTGAGCGATCAAAAACGCCGTAGAACGCTTTAATTGATAATCAAAGGCCGCAGAGAGCTC
DNA 2: GAGCTCTCTGCGGCCTTTGATTATCAATTAAAGCGTTCTACGGCGTTTTTGATCGCTCAACTGTGCCGACAGGGATCC
HMfA [4]
  Kd: 3.75 ± 0.1 µM
HMfB [5]
  Kd: 0.243 ± 0.16 µM
HMfB [6]
  Kd: 2.99 ± 0.81 µM
HMfB D14A K30A E34A [7]
  Kd: 19.6 ± 1.19 µM

B3: Clone20R 78 bp (dsDNA)
DNA 1: CGGCGCAAATTCGTGACCAGTTGCATCAGCTGCGTGCGTAGAACGCTTTAATTGATAATCAAAGGCCGCAGAGAGCTC
DNA 2: GAGCTCTCTGCGGCCTTTGATTATCAATTAAAGCGTTCTACGCACGCAGCTGATGCAACTGGTCACGAATTTGCGCCG
HMfA [8]
  Kd: 7.34 ± 2.8 µM
HMfB [9]
  Kd: 0.66 ± 0.047 µM
HMfB [10]
  Kd: 12.3 ± 27 µM

B4: Clone20L 78 bp (dsDNA)
DNA 1: GGATCCCTGTCGGCACAGTTGAGCGATCAAAAACGCCGTAGATTATCGCAGCATCGTAACAGGATAGTGAAGAAGACT
DNA 2: AGTCTTCTTCACTATCCTGTTACGATGCTGCGATAATCTACGGCGTTTTTGATCGCTCAACTGTGCCGACAGGGATCC
HMfB [11]
  Kd: 4.11 ± 1 µM
HMfA [12]
  Kd: 8.09 ± 1.4 µM
